# According to the supplement of paper PMC9112550, “Optimization of the antimicrobial peptide Bac7 by deep mutational scanning” (BMC Biology, 2022):
# Test system: Escherichia coli TOP10
# Experiment: shrunken log2 fold change of peptide-encoding DNA abundance (4.5 h post-induction vs induction); higher = less antimicrobial activity (less host growth inhibition)
# Settings: time post-induction: 4.5 h; library: site-saturation at positions 5, 18, 19, 20
# 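Note: peptides expressed intracellularly from a pBAD plasmid library in pooled LB shake-flask culture, induced with 0.3% L-arabinose, DNA abundance read by NGS, three biological replicates, DESeq2 with apeglm shrinkage.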
row,Sequence,shrunken log2 fold change
1,RRIRCRPPRLPRPRPRPGKAPRP,0.00811
2,RRIRSRPPRLPRPRPRPWEQPRP,-0.208
3,RRIRYRPPRLPRPRPRPMMDPRP,-0.103
4,RRIRLRPPRLPRPRPRPWMVPRP,-0.263
5,RRIRPRPPRLPRPRPRPKTSPRP,0.0127
6,RRIRRRPPRLPRPRPRPGQTPRP,0.0182
7,RRIRSRPPRLPRPRPRPWIWPRP,0.341
8,RRIRKRPPRLPRPRPRPSACPRP,-0.0843
9,RRIRFRPPRLPRPRPRPIVFPRP,-0.0906
10,RRIRYRPPRLPRPRPRPDTCPRP,-0.233
11,RRIRQRPPRLPRPRPRPMYMPRP,-0.0317
12,RRIRLRPPRLPRPRPRPVYRPRP,-0.548
13,RRIRARPPRLPRPRPRPGNVPRP,0.332
14,RRIRTRPPRLPRPRPRPQREPRP,-0.0725
15,RRIRFRPPRLPRPRPRPVYYPRP,-1.27
16,RRIRRRPPRLPRPRPRPQMQPRP,-0.205
17,RRIRDRPPRLPRPRPRPGPVPRP,0.545
18,RRIRYRPPRLPRPRPRPWVIPRP,-0.0317
19,RRIRSRPPRLPRPRPRPQDPPRP,0.122
20,RRIRKRPPRLPRPRPRPPRQPRP,0.82
21,RRIRIRPPRLPRPRPRPNNWPRP,-0.535
22,RRIRYRPPRLPRPRPRPPDVPRP,-0.0764
23,RRIRRRPPRLPRPRPRPPWWPRP,0.862
24,RRIRLRPPRLPRPRPRPRSRPRP,0.394
25,RRIRQRPPRLPRPRPRPQNCPRP,0.0179

row,Sequence,shrunken log2 fold change
1,RRIRPRPPRLPRPRPRPKLSPRP,0.331
2,RRIRSRPPRLPRPRPRPTEYPRP,-0.206
3,RRIRARPPRLPRPRPRPWIFPRP,-0.114
4,RRIRRRPPRLPRPRPRPFMHPRP,0.0444
5,RRIRKRPPRLPRPRPRPAYDPRP,-0.116
6,RRIRGRPPRLPRPRPRPFVSPRP,-0.166
7,RRIRYRPPRLPRPRPRPFICPRP,-0.579
8,RRIRARPPRLPRPRPRPDYQPRP,-0.0168
9,RRIRGRPPRLPRPRPRPLNYPRP,0.131
10,RRIRFRPPRLPRPRPRPYAPPRP,-0.496
11,RRIRYRPPRLPRPRPRPGKPPRP,-0.0225
12,RRIRQRPPRLPRPRPRPFPGPRP,0.115
13,RRIRSRPPRLPRPRPRPQIAPRP,-0.102
14,RRIRARPPRLPRPRPRPIVKPRP,0.0456
15,RRIRDRPPRLPRPRPRPRRIPRP,0.0214
16,RRIRERPPRLPRPRPRPPFEPRP,0.363
17,RRIRCRPPRLPRPRPRPDRNPRP,-0.397
18,RRIRKRPPRLPRPRPRPSWRPRP,0.211
19,RRIRCRPPRLPRPRPRPRNHPRP,-0.0709
20,RRIRGRPPRLPRPRPRPMNCPRP,0.0167
21,RRIRNRPPRLPRPRPRPIKVPRP,-0.607
22,RRIRVRPPRLPRPRPRPVEAPRP,0.0669
23,RRIRARPPRLPRPRPRPKMAPRP,0.291
24,RRIRFRPPRLPRPRPRPNKAPRP,-0.268
25,RRIRKRPPRLPRPRPRPVGVPRP,0.515

row,Sequence,shrunken log2 fold change
1,RRIRERPPRLPRPRPRPWTQPRP,-0.298
2,RRIRYRPPRLPRPRPRPEDCPRP,-0.029
3,RRIRNRPPRLPRPRPRPTMAPRP,0.0535
4,RRIRERPPRLPRPRPRPCAAPRP,-0.244
5,RRIRHRPPRLPRPRPRPNQCPRP,-0.201
6,RRIRYRPPRLPRPRPRPYRIPRP,-0.731
7,RRIRHRPPRLPRPRPRPGEDPRP,0.0147
8,RRIRERPPRLPRPRPRPATQPRP,0.00813
9,RRIRNRPPRLPRPRPRPAYDPRP,-0.119
10,RRIRQRPPRLPRPRPRPDWHPRP,-0.038
11,RRIRQRPPRLPRPRPRPAHRPRP,0.151
12,RRIRVRPPRLPRPRPRPTRSPRP,0.17
13,RRIRRRPPRLPRPRPRPYSWPRP,-0.275
14,RRIRVRPPRLPRPRPRPQFMPRP,-0.232
15,RRIRKRPPRLPRPRPRPLKDPRP,-0.22
16,RRIRFRPPRLPRPRPRPWRLPRP,-0.799
17,RRIRLRPPRLPRPRPRPAFHPRP,-0.0947
18,RRIRLRPPRLPRPRPRPGSNPRP,-0.57
19,RRIRQRPPRLPRPRPRPQNMPRP,-0.506
20,RRIRIRPPRLPRPRPRPVCTPRP,-0.159
21,RRIRFRPPRLPRPRPRPFYAPRP,-0.542
22,RRIRDRPPRLPRPRPRPAECPRP,0.232
23,RRIRSRPPRLPRPRPRPKFLPRP,-0.0307
24,RRIRPRPPRLPRPRPRPEVDPRP,0.155
25,RRIRGRPPRLPRPRPRPAVTPRP,0.688

row,Sequence,shrunken log2 fold change
1,RRIRYRPPRLPRPRPRPFLRPRP,-0.308
2,RRIRCRPPRLPRPRPRPKLRPRP,0.564
3,RRIRPRPPRLPRPRPRPFYCPRP,-0.212
4,RRIRKRPPRLPRPRPRPCHWPRP,0.139
5,RRIRLRPPRLPRPRPRPRSKPRP,-0.111
6,RRIRYRPPRLPRPRPRPLRMPRP,0.0288
7,RRIRKRPPRLPRPRPRPCCGPRP,0.281
8,RRIRWRPPRLPRPRPRPAETPRP,0.0775
9,RRIRERPPRLPRPRPRPFKYPRP,-0.0322
10,RRIRVRPPRLPRPRPRPPSGPRP,0.208
11,RRIRSRPPRLPRPRPRPICYPRP,-0.475
12,RRIRMRPPRLPRPRPRPDNAPRP,-0.267
13,RRIRHRPPRLPRPRPRPVRYPRP,-0.551
14,RRIRVRPPRLPRPRPRPRHNPRP,-0.389
15,RRIRSRPPRLPRPRPRPWYFPRP,-0.85
16,RRIRERPPRLPRPRPRPGCSPRP,-0.0673
17,RRIRHRPPRLPRPRPRPFCKPRP,-0.571
18,RRIRWRPPRLPRPRPRPQPAPRP,0.812
19,RRIRDRPPRLPRPRPRPLLTPRP,0.35
20,RRIRQRPPRLPRPRPRPNTNPRP,-0.47
21,RRIRDRPPRLPRPRPRPSHSPRP,-0.127
22,RRIRPRPPRLPRPRPRPTWLPRP,0.522
23,RRIRWRPPRLPRPRPRPFFDPRP,0.0993
24,RRIRERPPRLPRPRPRPSVHPRP,-0.329
25,RRIRARPPRLPRPRPRPIAAPRP,0.925

row,Sequence,shrunken log2 fold change
1,RRIRKRPPRLPRPRPRPDKNPRP,0.159
2,RRIRIRPPRLPRPRPRPKWRPRP,0.188
3,RRIRMRPPRLPRPRPRPFPNPRP,-0.288
4,RRIRWRPPRLPRPRPRPGHKPRP,-0.14
5,RRIRYRPPRLPRPRPRPFKTPRP,-0.398
6,RRIRTRPPRLPRPRPRPMVTPRP,0.06
7,RRIRVRPPRLPRPRPRPIEHPRP,-0.168
8,RRIRSRPPRLPRPRPRPFSYPRP,-0.0241
9,RRIRPRPPRLPRPRPRPDMMPRP,-0.0321
10,RRIRNRPPRLPRPRPRPRPQPRP,0.339
11,RRIRPRPPRLPRPRPRPTNGPRP,0.191
12,RRIRQRPPRLPRPRPRPTFWPRP,2.04
13,RRIRIRPPRLPRPRPRPFQVPRP,0.0102
14,RRIRKRPPRLPRPRPRPQYLPRP,-0.0967
15,RRIRDRPPRLPRPRPRPGADPRP,0.655
16,RRIRPRPPRLPRPRPRPDDKPRP,-0.0729
17,RRIRGRPPRLPRPRPRPDEFPRP,0.561
18,RRIRHRPPRLPRPRPRPRIPPRP,-0.32
19,RRIRERPPRLPRPRPRPPGLPRP,0.433
20,RRIRYRPPRLPRPRPRPVHGPRP,-0.014
21,RRIRYRPPRLPRPRPRPAIHPRP,-0.406
22,RRIRMRPPRLPRPRPRPSFNPRP,-0.535
23,RRIRFRPPRLPRPRPRPETMPRP,0.0761
24,RRIRTRPPRLPRPRPRPIWQPRP,0.168
25,RRIRLRPPRLPRPRPRPMFLPRP,-0.0362

row,Sequence,shrunken log2 fold change
1,RRIRKRPPRLPRPRPRPWWWPRP,-0.0108
2,RRIRGRPPRLPRPRPRPRMHPRP,0.997
3,RRIRSRPPRLPRPRPRPFNGPRP,-0.0626
4,RRIRKRPPRLPRPRPRPSECPRP,-0.0384
5,RRIRIRPPRLPRPRPRPYYFPRP,-1.16
6,RRIRWRPPRLPRPRPRPPQQPRP,0.163
7,RRIRRRPPRLPRPRPRPKEHPRP,0.345
8,RRIRRRPPRLPRPRPRPVASPRP,0.0932
9,RRIRPRPPRLPRPRPRPWVDPRP,0.064
10,RRIRERPPRLPRPRPRPTHLPRP,0.229
11,RRIRFRPPRLPRPRPRPFYQPRP,-0.537
12,RRIRARPPRLPRPRPRPIVLPRP,-0.121
13,RRIRCRPPRLPRPRPRPETHPRP,0.0444
14,RRIRWRPPRLPRPRPRPDILPRP,0.0776
15,RRIRARPPRLPRPRPRPGITPRP,0.335
16,RRIRARPPRLPRPRPRPRKEPRP,-0.0116
17,RRIRQRPPRLPRPRPRPIFRPRP,0.0716
18,RRIRQRPPRLPRPRPRPVNVPRP,0.0398
19,RRIRFRPPRLPRPRPRPELVPRP,0.616
20,RRIRTRPPRLPRPRPRPAHKPRP,0.0105
21,RRIRKRPPRLPRPRPRPWTEPRP,-0.172
22,RRIRGRPPRLPRPRPRPTDFPRP,0.161
23,RRIRCRPPRLPRPRPRPMPLPRP,-0.643
24,RRIRRRPPRLPRPRPRPSEHPRP,0.453
25,RRIRRRPPRLPRPRPRPHYNPRP,-0.202
